No end group written: not given here.
Assay: CD spectroscopy, secondary structure at different pH and temperature
Assay type: physicochemical
Method: Circular dichroism spectra were recorded at different temperatures using a J-810 spectropolarimeter (Jasco, Hachioji, Tokyo, Japan) in a 0.1 cm path length quartz cell (Hellma GmbH and Co. KG, Mullheim, Germany) in the 190–250 nm range 0.2 using solutions of Lc-def in 10 mM phosphate buffer, pH 7.4, or 150 mM sodium chloride, pH 2.5, simulated gastric fluid, at a concentration of 30 µM. Lysolipids were added at final concentration of 1 mM.

[1] = far-UV CD, 30 µM, 10 mM phosphate buffer pH 7.4
[2] = far-UV CD, 30 µM, 150 mM sodium chloride pH 2.5, simulated gastric fluid
[3] = pH 7.4, 20 °C end (after heating and cooling)

In the case of “Lc-def: defensin from lentil Lens culinaris seeds (UniProt:B3F051), recombinant, overexpressed in Escherichia coli (KTCENLSDSFKGPCIPDGNCNKHCKEKEHLLSGRCRDDFRCWCTRNC; disulfide (positions not given here); ends not checked; also: disulfide bonds present, pairing not given here; UniProt B3F051 28-74, looked up)”, the “Random, %” value (+LPPC 1 mM, pH 7.4, 20 °C) was 31%, the “α-Helix, %” value (+LPPC 1 mM, pH 7.4, 20 °C) was 16.4% and the “β-Sheet, %” value (+LPPC 1 mM, pH 7.4, 20 °C) was 30.3%. The “β-Turn, %” value (+LPPC 1 mM, pH 7.4, 20 °C) was 22.3%, the “Random, %” value (+LPPC 1 mM, pH 7.4, 20 °C end) was 32.8% and the “α-Helix, %” value (+LPPC 1 mM, pH 7.4, 20 °C end) was 5.8%. For the same substance, the “β-Sheet, %” value (+LPPC 1 mM, pH 7.4, 20 °C end) was 39.9%, the “β-Turn, %” value (+LPPC 1 mM, pH 7.4, 20 °C end) was 21.5% and the “Random, %” value (+LPPC 1 mM, pH 7.4, 98 °C) was 33.7%. The “α-Helix, %” value (+LPPC 1 mM, pH 7.4, 98 °C) was 8.1%, the “β-Sheet, %” value (+LPPC 1 mM, pH 7.4, 98 °C) was 35.7% and the “β-Turn, %” value (+LPPC 1 mM, pH 7.4, 98 °C) was 22.5%. The “Random, %” value (+LPPG 1 mM, pH 7.4, 20 °C) was 33%, the “α-Helix, %” value (+LPPG 1 mM, pH 7.4, 20 °C) was 23.6% and the “β-Sheet, %” value (+LPPG 1 mM, pH 7.4, 20 °C) was 21%. The “β-Turn, %” value (+LPPG 1 mM, pH 7.4, 20 °C) was 22.4%, the “Random, %” value (+LPPG 1 mM, pH 7.4, 20 °C end) was 32.9% and the “α-Helix, %” value (+LPPG 1 mM, pH 7.4, 20 °C end) was 21.7%. The “β-Sheet, %” value (+LPPG 1 mM, pH 7.4, 20 °C end) was 23.1%, the “β-Turn, %” value (+LPPG 1 mM, pH 7.4, 20 °C end) was 22.2% and the “Random, %” value (+LPPG 1 mM, pH 7.4, 98 °C) was 35%. The “α-Helix, %” value (+LPPG 1 mM, pH 7.4, 98 °C) was 18.5%, the “β-Sheet, %” value (+LPPG 1 mM, pH 7.4, 98 °C) was 24.1% and the “β-Turn, %” value (+LPPG 1 mM, pH 7.4, 98 °C) was 22.4%. The “Random, %” value [1] was 33.9%, the “α-Helix, %” value [1] was 15.5% and the “β-Sheet, %” value [1] was 28.5%. The “β-Turn, %” value [1] was 22.2%, the “Random, %” value [2] was 35.8% and the “α-Helix, %” value [2] was 13.9%. The “β-Sheet, %” value [2] was 25.4%, the “β-Turn, %” value [2] was 24.8% and the “Random, %” value (pH 7.4, 20 °C (before heating)) was 34%. The “α-Helix, %” value (pH 7.4, 20 °C (before heating)) was 15.9%, the “β-Sheet, %” value (pH 7.4, 20 °C (before heating)) was 27.7% and the “β-Turn, %” value (pH 7.4, 20 °C (before heating)) was 22.3%. The “Random, %” value [3] was 35.9%, the “α-Helix, %” value [3] was 9% and the “β-Sheet, %” value [3] was 32.1%. The “β-Turn, %” value [3] was 22.9%, the “Random, %” value (pH 7.4, 98 °C) was 35.3% and the “α-Helix, %” value (pH 7.4, 98 °C) was 13.3%. The “β-Sheet, %” value (pH 7.4, 98 °C) was 29.6% and the “β-Turn, %” value (pH 7.4, 98 °C) was 21.8%.
